From paper PMC12043510

Columns and labels:
[1] = molecular target: GST–CP (rice stripe virus (RSV)); assay: MST
[2] = molecular target: MBP–P2^1–786 (rice dwarf virus (RDV)); assay: MST

Substance: MBP–RBRL (from UniProt Q75LV6 1-540) (enzyme)
- Kd [1]: 5.28 nM
- Kd [2]: 183 nM
